In data set [1] the target is T1, AtSDC (Arabidopsis thaliana, UniProt Q9MA74).
T1 construct: gene SDC; recombinant from bacterial expression plasmid pTYB12 (IMPACT-CN)
T1 sequence (Q9MA74 1-482): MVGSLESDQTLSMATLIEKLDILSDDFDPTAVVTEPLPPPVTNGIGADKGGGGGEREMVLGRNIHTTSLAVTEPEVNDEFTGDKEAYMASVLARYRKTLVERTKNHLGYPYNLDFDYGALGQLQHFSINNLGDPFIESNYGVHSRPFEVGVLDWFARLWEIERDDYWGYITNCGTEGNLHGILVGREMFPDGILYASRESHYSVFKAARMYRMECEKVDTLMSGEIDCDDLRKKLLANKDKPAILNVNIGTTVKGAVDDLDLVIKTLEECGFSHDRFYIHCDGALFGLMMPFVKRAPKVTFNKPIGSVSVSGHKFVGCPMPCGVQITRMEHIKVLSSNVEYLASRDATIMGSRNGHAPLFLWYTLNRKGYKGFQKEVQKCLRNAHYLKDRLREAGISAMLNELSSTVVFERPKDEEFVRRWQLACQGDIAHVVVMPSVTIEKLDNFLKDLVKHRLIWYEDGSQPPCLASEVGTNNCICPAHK
Put plainly: HPLC-EC decarboxylation assay. The format is biochemical. Conditions: 5 mM substrate, 20 mM HEPES pH 7.5, 25°C, 10 min.

In data set [2] the target is T2, SlAAAD (Solanum lycopersicum, UniProt Q1KSC6).
T2 construct: gene AADC1A; recombinant from bacterial expression plasmid pTYB12 (IMPACT-CN)
T2 sequence (Q1KSC6 1-471): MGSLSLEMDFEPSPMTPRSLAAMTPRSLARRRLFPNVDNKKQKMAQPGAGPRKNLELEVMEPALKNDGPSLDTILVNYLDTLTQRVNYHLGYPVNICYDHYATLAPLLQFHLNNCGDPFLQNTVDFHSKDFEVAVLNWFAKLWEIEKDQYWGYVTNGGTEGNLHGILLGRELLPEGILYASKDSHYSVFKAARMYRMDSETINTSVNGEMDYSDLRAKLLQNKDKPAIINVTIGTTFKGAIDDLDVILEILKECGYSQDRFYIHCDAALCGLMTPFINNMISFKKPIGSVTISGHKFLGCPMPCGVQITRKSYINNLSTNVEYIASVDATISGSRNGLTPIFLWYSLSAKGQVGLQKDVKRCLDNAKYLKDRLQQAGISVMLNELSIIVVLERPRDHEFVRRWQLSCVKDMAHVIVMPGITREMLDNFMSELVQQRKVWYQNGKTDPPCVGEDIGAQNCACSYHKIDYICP
In words: HPLC-EC decarboxylation assay. The format is biochemical. Conditions: 5 mM substrate, 20 mM HEPES pH 7.5, 25°C, 10 min.

Substrate in data set [3]: CC(C)C[C@H](N)C(=O)O
Put plainly: purified protein. Conditions: 20 mM HEPES pH 7.5, 25°C, 5 min, hyperbolic regression.

Substrate in data set [4]: CSCC[C@H](N)C(=O)O
Put plainly: peroxide assay (Pierce Quantitative Peroxide Assay Kit). The class given is biochemical, Cicer arietinum. Conditions: 20 mM HEPES pH 7.5, 25°C, 5 min, hyperbolic regression. The source says:
(§1) peroxide assay (Pierce Quantitative Peroxide Assay Kit) on CaAAS

Substrate in data set [5]: N[C@@H](Cc1c[nH]c2ccccc12)C(=O)O
Described as above. The class given is biochemical, Cicer arietinum. Conditions: 20 mM HEPES pH 7.5, 25°C, 5 min, hyperbolic regression.
Text: as §1

Substrate in data set [6]: N[C@@H](Cc1ccccc1)C(=O)O
The description is as above. The class given is biochemical, Cicer arietinum. Particulars: 20 mM HEPES pH 7.5, 25°C, 5 min, hyperbolic regression.
Text: as §1

Substrate in data set [7]: CSCC[C@H](N)C(=O)O
Described as above. The format is biochemical, Medicago truncatula. Particulars: 20 mM HEPES pH 7.5, 25°C, 5 min, hyperbolic regression. The source says:
(§2) peroxide assay (Pierce Quantitative Peroxide Assay Kit) on MtAAS

Substrate in data set [8]: N[C@@H](Cc1c[nH]c2ccccc12)C(=O)O
The description is as above. The class given is biochemical, Medicago truncatula. Conditions: 20 mM HEPES pH 7.5, 25°C, 5 min, hyperbolic regression.
Text: as §2

Substrate in data set [9]: N[C@@H](Cc1ccccc1)C(=O)O
The description is as above. The format is biochemical, Medicago truncatula. Particulars: 20 mM HEPES pH 7.5, 25°C, 5 min, hyperbolic regression.
Text: as §2

Regarding `N[C@@H](CO)C(=O)O` [serine], the HPLC-EC decarboxylation assay entry in [1] was “AtSDC only has activity towards serine”.
`N[C@@H](Cc1ccccc1)C(=O)O` [phenylalanine]: the HPLC-EC decarboxylation assay entry in [2] was “SlAAAD decarboxylation assay demonstrated activity towards tyrosine, dopa, phenylalanine and tryptophan”.
On the same count and under the same terms, then `N[C@@H](Cc1ccc(O)cc1)C(=O)O` [tyrosine], with “SlAAAD decarboxylation assay demonstrated activity towards tyrosine, dopa, phenylalanine and tryptophan”.

B1: CaAAS (Cicer arietinum) (protein)
chain: MGSLEGNNMLSMVVSNAKLAREEERQENINITNTNLTINQCIGETDANLKAIITHYVDTLTYSSLRNLGYPTNQDFNYDALASLFHFHLNNAGDPFVGSSFSLNSTKFEVGVLDWFAELWEIEKSDYWGYVTTGGTEGNLHGILVGREQFPDGILYTSQDSHYSIFKIARMYRMECVKVGSLLSGEIDCVELEASLLAHKDKPAIINLNIGTTMKGGIDDLDIVIQTLKKCGFTRDRFYIHCDGALFGIMLPFIKQAQRISFKKPIDSVTISGHKFLGCPSPCGVVITRLKYINELSRDVEIIASRDATITGSRCGHAPILLWYALKKKGLIGLKNEVHECIINARYLLDQLRDAGIGAMLNEFSNIVVFEKPLDDNFTRRWNLATKGNIAHVVVLMHVTKEMLDTFVREFIQKRSIWYKHGHFQPLCIANHVGSTNCVCSIHKLS
notes: recombinant from bacterial expression plasmid pTYB12 (IMPACT-CN)
With B1, the Km (as a rule, the concentration of substrate that gives half-maximal velocity) was determined as 4600 ± 400 µM in data set [3], 1620 ± 200 µM in [4], 2800 ± 700 µM in [5] and 90 ± 10 µM in data set [6]. For the same molecule, the kcat (commonly the maximal rate divided by the concentration of active sites) in [3] amounted to 0.467 s⁻¹; in data set [4], 0.351 ± 0.012 s⁻¹; in data set [5], 0.187 ± 0.016 s⁻¹; in [6] it was 0.595 ± 0.009 s⁻¹. In addition, the kcat/Km – broadly, the turnover number divided by the Michaelis constant – in data set [3] amounted to 100 M⁻¹ s⁻¹; in [4], 220 ± 10 M⁻¹ s⁻¹; in [5], 70 ± 100 M⁻¹ s⁻¹; in data set [6], 6600 ± 650 M⁻¹ s⁻¹.

B2: MtAAS (Medicago truncatula) (protein)
chain: MAMTFIPDAELLPTVVVNAKLSREEKHDEENIIGLTNLDVTKSIGETDANLDAIIAHYAQTITKYNMRNLGYPTNQDFNYEALAPLLQFHLNNAGDPFLGSSFSLNSMAFEVSVLDWFAKLWEIEKNEYWGYVTTGGTEGNLHGILAGREQLPDGILYTSQDSHYSIAKIAKMYRMKCVKVDSLLSGEIDCVQLEASLLAHKDKPAIINLNIGTTLKGGIDDLDLVIQTLNKCGFTRDRFYIHCDGALFGIMLPFIKQAPRISFKKPIDSVTISGHKFLGCPSPCGVLITRLKYMNALSRDVDIIASRDATITGSRCGHAPIFLWYALKKRGLIGLENEVHECIMKAHYLLNLLRDAGIGAMLNKFSNIVVFERPLDDHFTRRWNLASNKNTAHVVVLKHVTVEMLDSFVREFTEKQSIWYKDEQFQPPCIANDVGSRNCACSIHNLSRNC
notes: as for B1
On to B2, for which the Km in [3] is 7600 ± 700 µM; in data set [7], 1900 ± 200 µM; in data set [8], 1700 ± 300 µM; in [9] it was 20 ± 10 µM. The kcat in [3] worked out at 0.197 s⁻¹; in data set [7] it was 0.144 ± 0.006 s⁻¹; in [8], 0.125 ± 0.008 s⁻¹; in [9], 0.358 ± 0.005 s⁻¹. For the same molecule, the kcat/Km in data set [3] turned out to be 30 M⁻¹ s⁻¹; in data set [7], 80 ± 10 M⁻¹ s⁻¹; in [8] it was 70 ± 10 M⁻¹ s⁻¹; in [9] it was 17900 ± 2290 M⁻¹ s⁻¹.

(Values after PMC4177580, “Diverse functional evolution of serine decarboxylases: identification of two novel acetaldehyde synthases that uses hydrophobic amino acids as substrates” (BMC Plant Biology, 2014).)
